According to doi:10.1101/2024.04.19.590210:

Target: TF-HIS-BBX13 (BBX13/COL15) (Arabidopsis thaliana, UniProt Q9C7E8 1-433)
Experiment: EMSA

Chain of TF-HIS-BBX13 (BBX13/COL15) (Q9C7E8 whole entry): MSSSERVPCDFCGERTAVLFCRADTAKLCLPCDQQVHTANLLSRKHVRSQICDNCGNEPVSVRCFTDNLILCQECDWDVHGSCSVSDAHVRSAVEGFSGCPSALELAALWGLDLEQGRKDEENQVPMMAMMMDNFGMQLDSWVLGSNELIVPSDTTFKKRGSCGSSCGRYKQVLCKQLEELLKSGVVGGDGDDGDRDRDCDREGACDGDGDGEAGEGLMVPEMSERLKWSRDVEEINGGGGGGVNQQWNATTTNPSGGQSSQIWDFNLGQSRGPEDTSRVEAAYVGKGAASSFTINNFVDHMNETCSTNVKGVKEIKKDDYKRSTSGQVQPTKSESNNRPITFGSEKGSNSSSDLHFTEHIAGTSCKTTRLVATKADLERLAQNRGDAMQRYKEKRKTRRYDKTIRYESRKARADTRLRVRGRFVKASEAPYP

B1: FT-CORE2 EMSA probe (FT Biot) (dsDNA)
DNA 1: ATCAATAGACAAGAAAAAGATTGTGGTTATGATTTCACCGACCCGAGTTAATG
DNA 2: CATTAACTCGGGTCGGTGAAATCATAACCACAATCTTTTTCTTGTCTATTGAT
binding result: binds
